Key:
[1] = target: fHbp variant 3.28 on live meningococci of MenB strain M1239 (Neisseria meningitidis (endogenous in strain M1239)) (UniProt E6MV22)
[2] = target: fHbp variant 1.1 on live meningococci of MenB strain MC58 (Neisseria meningitidis (endogenous in strain MC58)) (UniProt Q9JXV4)
[3] = target: T1, factor H binding protein (fHbp) variant 2.16, wild type, recombinant (Neisseria meningitidis serogroup B, …, strain); experiment: BLI; mAb (1B1 or 4B3, 10 mcg/mL) captured via Fc on Anti-Fc Human (AHC) biosensors; fHbp in solution, 150 to 1 nM; 30°C; 1 x PBS, 1% (w/v) BSA; 1:1 fit; conditions: both partners purified
T1 construct: Construct described in earlier work; vector pET-21b is named for the template plasmid; also called fHbp var 2; v2.16
T1 chain: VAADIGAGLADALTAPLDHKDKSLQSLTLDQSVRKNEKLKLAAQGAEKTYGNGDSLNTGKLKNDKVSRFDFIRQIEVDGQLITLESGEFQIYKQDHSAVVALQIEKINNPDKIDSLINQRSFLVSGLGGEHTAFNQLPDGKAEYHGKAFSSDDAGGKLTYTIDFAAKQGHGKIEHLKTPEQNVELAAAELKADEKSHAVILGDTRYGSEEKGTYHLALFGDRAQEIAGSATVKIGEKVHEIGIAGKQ

B1: human monoclonal antibody 1B1, full-length IgG1 (antibody, V domains shown)
VH: EVQLVESGGNLVQPGGSLRLSCAASGFTFSSYSMNWVRQAPGKGLEWVSYISSSSSTIYYADSVKGRFTISRDNAKNSLYLQMNSLRAEDTAVYYCARVAAGLKDWGQGTLVTVSS
VL: EIVLTQSPGTLSLSPGERATLSCRASQSISSSYLAWYQQKPGQAPRLLIFGASSRATGIPDRFSGSGSGTGFTLTISRLEPEDFAVYYCQHYDSSLPMTFGQGTKVEIK
notes: also called humAb 1B1; mAb 1B1; source: mammalian cells, recombinant, purified as described previously
- hSBA (human complement) titer against strain 5/99DD complemented with fHbp 3.28 [1]: < 4 titer
- rSBA (rabbit complement) titer against strain 5/99DD complemented with fHbp 3.28 [1]: < 16 titer
- hSBA (human complement) titer against MenB strain MC58 [2]: < 4 titer
- rSBA (rabbit complement) titer against MenB strain MC58 [2]: < 16 titer
- Kd [3]: 240 pM

— paper PMC11301264, “Bactericidal human monoclonal antibody 1B1 shows specificity for meningococcal factor H binding protein variant 2 and displaces human factor H” (FASEB BioAdvances, 2024)
